15 sequences from a protein production outcome set (Wang et al. 2014) can be followed below.

A short description of the data set: label from the status in PepcDB records.
With “MSLTNTKTGFSVKDILDLPDTNDEEGSITGTEEDTEGSEATKTPGVLVQSPLENVQNLPLKNPFYDNSDNPYTRWLATTDSIQYSLHGLSANSQDTSAKSPEPSADESPDNDKETSSNGSDSGKKQKEGALFQGTNLRTRAPV”, the protein production entry is on record as “failed”.

For the sequence “MSLTSLIIAEDQNMLRQAMVQLIKLHGDFEILADTDNGLDAMKLIEEYNPNVVILDIEMPGMTGLEVLAEIRKKHLNIKVIIVTTFKRPGYFEKAVVNDVDAYVLKERSIEELVETINKVNNGEKEGHHHHHH”, the protein production entry is “not failed”.

As to “MSLTTFLFRNGALLDPDHPDLLQGFEILIEDGFIREVSDKPIKSSNAHVIDVKGKTIMPGLIDLHVHVVAIEFNLPRVATLPNVLVTLRAVPIMRAMLRRGFTTVRDAGGAGYPFKQAVESGLVEGPRLFVSGRALSQTGGHADPRARSDYMPPDSPCGCCVRVGALGRVADGVDEVRRAVREELQMGADQIKIMASGGVASPTDPVGVFGYSEDEIRAIVAEAQGRGTYVLAHAYTPAAIARAVRCGVRTIEHGNLIDDETARLVAEHGAYVVPTLVTYDALASEGEKYGLPPESIAKIADVHGAGLHSIEIMKRAGVKMGFGTDLLGEAQRLQSDEFRILAEVLSPAEVIASATIVSAEVLGMQDKLGRIVPGAHADVLVVDGNPLKSVDCLLGQGEHIPLVMKDGRLFVNELEGHEGHHHHHH”, the protein production entry is reported as “not failed”.

With “MSLYKRKSKLIGLLLPDMSNPFFTLIARGVEDVALAHGYQVLIGNSDNDIKKAQGYLATFVSHNCTGMISTAFNENIIENTLTDHHIPFVFIDRINNEHNGISTNHFKGGQLQAEVVRKGKGKNVLIVHENLLIDAFHQRVQGIKYILDQQRIDYKMLEATLLDNDKKFIDLIKELSIDSIICSNDLLAINVLGIVQRYHFKVPAEIQIIGYDNIPFSEMTYPQITTIDQSAYHLGEIAVSQLLGLNTDNLTNNHKQLALTVKHRGSTREGHHHHHH”, the protein production entry is on record as “not failed”.

On to “MSMLGIKWKLHGNGKSIRPGHVVAPDERLAWPLTIGIGMQHVVAMFGATFLVPIITGMPPATTLLFSGIGTLLFLVITKGRVPSYLGSSFAFIAPIMASQQQYGVSGALGGVVLAGVVLALIGAVVQKFGAEWINRLMPPIVTGAIVALIGLNLAPAAKANFDAAPVTALITLVTIILVSVLFRGILGRLSILVGVVVGYLVAMMRGEVSYEKMDAAAWVGLPLFQTPEFHIGVVGLFVPVVLVLVAENVGHVKSVAAMTGQNLDGVSGRALMADGAATVLAGFGGGSGTTTYAENIGVMAATKVYSTAAYWVAGVFAILLSFSPKFGELIATVPPGVLGGAATMLYGMIGVLGVKIWVQNKVNFSNPINLTTAAVALIIGIADYAWTIGELKFTGIALGSAAALVIYHGMKGLAHWRGTVAEPETETAGLPPAVKSAMNAAAKRGGKKGK”, for which the protein production entry is given as “failed”.

“MSMPNHPNLTTADAKKILNKFNCLDIAPILKPSEKESVRRALILITKLSDYQILGICADTADEGLLAMKTYSHALGYEVPIDLPVVEGPVYIKLNGKNGLCYLDSYAGHHRGVLVSCQSYYEGGINEMYGHLPLDLFV”: the protein production result is given as “not failed”.

As to “MSMSSIPSSSPGGKRYGWVEKIGNKVPHPFLLFIYLIAVLIAATAILSALNVGVQNPTDGSRVVVKNLLSVEGLHWFLPNVIKNFSGFAPLGAILALVLGAGFAERVGLLPALMVKMASHVSARYASYMVLFIAFFSHISSDAALVIMPPLGALMFLAVGRHPVAGLLAAIAGVGCGFTANLLIVTTDVLLSGISTEAAKSIDASLHVSVIDNWYFMATSVIVLTLVGGLITDKLVEPRLGQWQGSRDEKLQTLTPAERFGLRIAGVATLVFVAVIALMVVPENGILRDPVQHTVMPSPFIKGIVPLIIFFFFVVSLAYGIATGKIRRQADLPQLMIEPMKEMAGFIVMVFPLAQFVAMFNWSNMGKFMAVGLTDLLESSGMNGVPAFVGLALLSAFLCMFIASGSAIWSILAPIFVPMFMLLGFHPAFAQILFRIADSSVLPLAPVSPFVPLFLGFLQRYRPDARLGTYYSLVLPYPLIFLAVWLLLLVGWYLVGLPIGPGIYPRLS”, the protein production entry is “failed”.

Take “MSMSSSSSICGDEDGDLLLDEEEEIDFYAILNVPKDATDDEIIKAYRKRCLMFHPDRFVDNDEKKDAERVFVKLRRAHEVLLDPKQRAIYDALGVQGLDTQGWEL”: the protein production entry is reported as “not failed”.

With “MSMVVDSVPDSSTFVGKTIRPVAAVSIHGIVFDGERLLAVDSKNGYLLEIDPYTNNTKLLNGQYWQEFIGATGLAIADRQLWFSSGQYVYTCNLEGPDLKPEVFAWFDDPVNGVAIWESTVYITCHKRGHIWVYGRDTRKLVATFYSPGIGVENITVRGEELWVCDSAEQSVYCLDRATGEINFSLITPFESPTGLAFYDDQAVGKATLYVAYVQQEPYVRDNPNADPNHELMYRETTFIHPLYFYNDPHQCCAFSNGYLVEMRYVEELAPLDPVDLKQVEWRMALPAVTPRQRIRKIESVGLPFSRIDDVNGQKVAVFEFDQLDLDSRAVFGWRVEMEVWGIKYRLKPSDCEHLPALPEGFADRYLVDNDNLSMETDIIIRAAAEAIGRETNLLRQMFNIRNYVYDRLSYGIKPHIDTPDLALRRGVGSCGEYVGVLLALARLNGIACRTAGRYKCPPHPLQRNLPMEPDFNHVWFEFYLPGIGWLPMESNPDDTNDGGPYPTRFFMGLAWYHAETAKDVPFEQLLSQGIPVNKQVVSIGELAINHVQFTILEELDPAAHLAHLEHHHHHH”, the protein production result was “not failed”.

As to “MSNAIEINELHWLLAVTQNIDVGIVVLDLNYRVTVWNTFMENRSGVVPYVAIDKTFFELFPEVNRQWLSKKIDNVVTLGTPAFTIWEQRPYLVRFKNYQPITGHEEFMYQNTTLFPLRSTTGAISHVCLVIYDVTDVAANRNQLQAANDKLQQLSGAEQK”, the protein production entry is given as “not failed”.

Take “MSNDNGVSRRQFMKTSALAAGGLLLACHLPLGRRDAAAATAEAFTPNAFLHIGTDERVTVIVNKSEMGQGVYTSLPMLVAEELCCDWKRVTFRPSPVAPEYNHTQFGPIMVTGGSTSVRSEWSRLSLAGAAAREMLIAAAAQEWRVEPAACRAEKGFVLGPGGRKLSFGTLAPKAASLPVPKEPKLKPGAKTLLGKPLKRLDSPAKIKGTAVFGIDVRAPGMLTALIARPPVFGGTVKGFDAAKAKAVPGVLDVVAVDAGVAVVADGFWPALKGREALAISWDEGDGARVSTDAMREEYARLAATPGAVARKDGDAPAELAKAARRFEAEYEVPYLAHATMEPLNCFVDLQSDSCLIRTGSQFQTGDRNAAARVAGLKPEQVTLETTFLGGGFGRRACPASDFVIEAVQVAKTVGKPVMVIRTREDDMRAGFYRPLWRDRVAACLDGRGYPLAWHHCIVGQSIMIGTPFEAMIRNGIDDTSVEGAADTPYAIPNLQVELHSPRNPVPVLWWRSVGHSHTAFVVESFLDELAHAAGKDPYQYRRALLAKHPRHLKVLETAARKAGWGKPLPKGRGRGIAVHESFGSFIAQVAEVSLSGDGRIRVHRVVCAVDCGRIVNPDTIEAQMESGITFGLSAALHGAITLRNGRVEQGNFDDYPLVRMAEMPTVEVHIVLSGEDPGGIGEPGVPPIAPAVANALFAASGIRVRSLPLTPETVKRAGGRAA”: the protein production result is on record as “failed”.

As for “MSNDTPFDALWQRMLARGWTPVSESRLDDWLTQAPDGVVLLSSDPKRTPEVSDNPVMIGELLHEFPDYTWQVAIADLEQSEAIGDRFGAFRFPATLVFTGGNYRGVLNGIHPWAELINLMRGLVEPQQERASLEHHHHHH”, the protein production entry is on record as “not failed”.

On to “MSNFEKRNRKMAEKNIRKPKQERSIEKRNKILQVAKDLFSDKTYFNVTTNEIAKKADVSVGTLYAYFASKEDILTALLKRYNDFFLTTIFADINSQDSLDRFKKNPKEWLNVLINQLLAAEDKIFHAQIEMLAYAIPQAKALLEEHNNNLKNLTYKCLLYYSDQAANPSFKTLSLVVFDFISALVDELLYHEHTQEEAHQIKKTGIDSLDLIIKSYL”, for which the protein production result is given as “not failed”.

In the case of “MSNHIDRDVINALIAGHFADPFSVLGMHRTDAGLEVRALLPDATDVWVIEPKTGRKVGKLECLDSRGFFSGVLPRRKNAFRYQLAVTWHGQQNLIDDPYRFGPLLQ”, the protein production entry is “not failed”.

For the sequence “MSNHRHDHSLPSDADSRYLVAALTLLAAFMITEIITAVISGSLALLSDAGHMLSDIGAIAIALWAARLTRRRPQGSWTWGWKRAEIMSAAVNGVTLLVVAILVGIEAVRRLVTPPAVGGGLVMVIAAVGVVVNVAVAWLVARANRRSLNVEGAYQHILTDLFGFIGTLVAGLVIVTTGWTRADAIASLIICGLMLRAAWSLLSQTGRILMEVAPASLDLDEVRHHLMDLDHVRSVHDLHAWTVSSDLPALSAHIVVEDSCFADGHAPILLAQIQQCLSGHFDLDHSTLQLEPPRHAGTENQTM”, the protein production entry is listed as “failed”.
